{
  "source": "patent US20220298229A1",
  "about": "(ICHOR BIOLOGICS, published 2022)",
  "binders": {"B1": {"name": "monoclonal antibody MIB22 (antibody, V domains shown)", "VH": "EVQLVQSGAELKKPGSSVKVSCKASGGTFVGYGVSWVRQVPGHGPEWMGGFSPISNTANYAERFQGRVTMIVDGSTSTAYMELRSLRSEDTAIYYCARSCDFWNAYYNNWFDPWGQGTLVTVSS", "VL": "AQSALTQPASVSGSPGQSITISCTGTSSDFADYNSVSWYQQHPGKAPKLLIFDVNDRPSGVSHRFSGSKSGNTASLTISGLQAEDESDYYCTSYTICNSYVFGTGTKVTVLG", "notes": "also called MIB22 IgG; first antibody"}},
  "key": {"[1]": {"target": "T1, ANDV glycoprotein (GPC), glycoproteins Gn and Gc of hantavirus strain Chile-9717869 (Andes Virus (hantavirus strain …, UniProt Q9E006 19-1138))", "T1 sequence": "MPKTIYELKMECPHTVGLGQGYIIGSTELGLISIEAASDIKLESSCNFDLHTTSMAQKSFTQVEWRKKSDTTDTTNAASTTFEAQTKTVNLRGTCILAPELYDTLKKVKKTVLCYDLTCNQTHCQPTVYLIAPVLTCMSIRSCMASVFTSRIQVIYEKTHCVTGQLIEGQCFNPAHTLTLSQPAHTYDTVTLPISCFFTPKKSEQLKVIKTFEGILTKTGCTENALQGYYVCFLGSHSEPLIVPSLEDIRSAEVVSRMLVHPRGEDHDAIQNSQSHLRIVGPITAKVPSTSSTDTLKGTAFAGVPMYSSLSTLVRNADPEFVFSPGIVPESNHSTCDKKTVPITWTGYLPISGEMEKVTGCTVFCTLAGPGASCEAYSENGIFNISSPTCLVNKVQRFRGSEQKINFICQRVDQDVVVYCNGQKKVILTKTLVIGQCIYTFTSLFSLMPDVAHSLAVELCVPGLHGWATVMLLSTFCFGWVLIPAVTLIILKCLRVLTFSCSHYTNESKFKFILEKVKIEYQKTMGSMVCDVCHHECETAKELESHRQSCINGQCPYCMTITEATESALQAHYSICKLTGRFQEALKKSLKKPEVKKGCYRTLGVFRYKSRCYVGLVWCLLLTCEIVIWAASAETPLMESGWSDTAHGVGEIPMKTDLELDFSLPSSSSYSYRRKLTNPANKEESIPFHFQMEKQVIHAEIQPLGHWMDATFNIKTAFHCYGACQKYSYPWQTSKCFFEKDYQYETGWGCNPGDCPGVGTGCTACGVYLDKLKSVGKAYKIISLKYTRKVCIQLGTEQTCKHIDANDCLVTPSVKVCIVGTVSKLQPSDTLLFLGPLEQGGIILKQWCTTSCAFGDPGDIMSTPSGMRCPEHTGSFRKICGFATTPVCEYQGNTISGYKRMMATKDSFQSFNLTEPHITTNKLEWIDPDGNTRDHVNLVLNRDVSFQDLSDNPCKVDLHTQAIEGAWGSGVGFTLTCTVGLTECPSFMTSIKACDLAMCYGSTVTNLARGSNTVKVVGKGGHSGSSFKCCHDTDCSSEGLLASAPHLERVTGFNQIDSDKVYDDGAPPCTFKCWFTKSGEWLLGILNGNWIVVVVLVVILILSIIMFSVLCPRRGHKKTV"}, "[2]": {"target": "T1, ANDV glycoprotein (GPC), glycoproteins …", "assay": "cell-based or functional assay"}},
  "data": [
    {"binder": "B1", "values": [
      {"measurement": "EC50", "setting": "[1]", "value": 3.38, "unit": "µg/mL"},
      {"measurement": "neutralization capacity relative to JL16", "setting": "[2]", "value": 31, "unit": "fold"},
      {"measurement": "potency of ANDV neutralization relative to polyclonal IgG from P10", "setting": "[2]", "value": 67, "unit": "fold"}
    ]}
  ]
}
